Target: the molecule itself
Experiment: cell-based or functional assay

B1: human RARα1 (a.a. 1 to 462) (receptor)
chain: MASNSSSCPTPGGGHLNGYPVPPYAFFFPPMLGGLSPPGALTTLQHQLPVSGYSTPSPATIETQSSSSEEIVPSPPSPPPLPRIYKPCFVCQDKSSGYHYGVSACEGCKGFFRRSIQKNMVYTCHRDKNCIINKVTRNRCQYCRLQKCFEVGMSKESVRNDRNKKKKEVPKPECSESYTLTPEVGELIEKVRKAHQETFPALCQLGKYTTNNSSEQRVSLDIDLWDKFSELSTKCIIKTVEFAKQLPGFTTLTIADQITLLKAACLDILILRICTRYTPEQDTMTFSDGLTLNRTQMHNAGFGPLTDLVFAFANQLLPLEMDDAETGLLSAICLICGDRQDLEQPDRVDMLQEPLLEALKVYVRKRRPSRPHMFPKMLMKITDLRSISAKGAERVITLKMEIPGSMPPLIQEMLENSEGLDTLSGQPGGGGRDGGGLAPPPGSCSPSLSPSSNRSSPATHSP
**Q.** B1 was tested. Which “OMPdecase activity of the DR5-URA3 reporter in yeast” value did it give?
**A.** ~5 fold

Source: patent publication US6635429B1, “Heterodimeric nuclear receptors proteins, genes encoding same, and usage thereof” (Institut National de la Sante et de la Recherche Medicale, dated 1993)
